Measurements published in patent publication US20200096507A1.

Key:
Assay in all cases: cell-based or functional assay
[1] = biological target: DsRed (UniProt Q9U6Y8)
[2] = biological target: CadC-artTM-GCN4 (E. coli) (UniProt P23890)
[3] = biological target: CadC-wtTM-GCN4 (E. coli) (UniProt P23890)

Chain of DsRed (Q9U6Y8 whole entry): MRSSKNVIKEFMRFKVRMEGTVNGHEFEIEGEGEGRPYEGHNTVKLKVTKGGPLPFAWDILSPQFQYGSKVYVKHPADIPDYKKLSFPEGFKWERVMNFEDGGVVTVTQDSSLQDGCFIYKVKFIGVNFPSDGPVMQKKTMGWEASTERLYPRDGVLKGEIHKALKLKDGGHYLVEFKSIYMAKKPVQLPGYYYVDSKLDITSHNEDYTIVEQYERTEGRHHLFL

LexA-DBD-Lam4 (from UniProt P0A7C2 1-87)
deGFP signal strength with DsRed in the medium (cell-free system, pLexA-deGFP reporter 300 ng/reaction, LexA-Lam4 plasmid 800 ng/reaction) [1]: 4850 a.u. | deGFP signal strength without DsRed in the medium (baseline; cell-free system, pLexA-deGFP reporter 300 ng/reaction, LexA-Lam4 plasmid 800 ng/reaction) [1]: 41400 a.u. | ratio of deGFP signal strength without and with DsRed (cell-free system, pLexA-deGFP reporter 300 ng/reaction, LexA-Lam4 plasmid 800 ng/reaction) [1]: 8.5

CadC-artTM-GCN4 (from UniProt P23890 1-154; P03069 253-274)
fold change in GFP expression compared to the construct without GCN4 (pCadBA-GFP reporter, E. coli, flow cytometry) [2]: 300 fold

CadC-wtTM-GCN4 (from UniProt P23890 1-187; P03069 253-274)
fold change in GFP expression compared to the construct without GCN4 (pCadBA-GFP reporter, E. coli, flow cytometry) [3]: 50 fold
